Experimental data reported in patent publication US20250368753A1.

Key:
[1] = biological target: proprotein convertase subtilisin/kexin type 9 (PCSK9) (human) (UniProt Q8NBP7); experiment: DELFIA immunoassay (PerkinElmer Cat. #1244-330) on PCSK9
[2] = biological target: proprotein convertase subtilisin/kexin type 9 (PCSK9) (human) (UniProt Q8NBP7); experiment: DELFIA immunoassay (PerkinElmer Cat. #1244-330), full-length IgG on PCSK9
[3] = biological target: proprotein convertase subtilisin/kexin type 9 (PCSK9) (human) (UniProt Q8NBP7); experiment: PCSK9 biochemical disruption assay (BPS Biosciences Cat. #72010); antibody disrupts PCSK9 binding to LDL-R
[4] = biological target: proprotein convertase subtilisin/kexin type 9 (PCSK9) (human) (UniProt Q8NBP7); experiment: PCSK9 biochemical disruption assay (BPS Biosciences Cat. #72010); antibody disrupts PCSK9 binding to LDL-R; positive signal but IC50 not reached at the concentrations tested

Sequence of UniProt Q8NBP7 (Q8NBP7 other isoform, or with tags, fused parts or gaps limits assumed): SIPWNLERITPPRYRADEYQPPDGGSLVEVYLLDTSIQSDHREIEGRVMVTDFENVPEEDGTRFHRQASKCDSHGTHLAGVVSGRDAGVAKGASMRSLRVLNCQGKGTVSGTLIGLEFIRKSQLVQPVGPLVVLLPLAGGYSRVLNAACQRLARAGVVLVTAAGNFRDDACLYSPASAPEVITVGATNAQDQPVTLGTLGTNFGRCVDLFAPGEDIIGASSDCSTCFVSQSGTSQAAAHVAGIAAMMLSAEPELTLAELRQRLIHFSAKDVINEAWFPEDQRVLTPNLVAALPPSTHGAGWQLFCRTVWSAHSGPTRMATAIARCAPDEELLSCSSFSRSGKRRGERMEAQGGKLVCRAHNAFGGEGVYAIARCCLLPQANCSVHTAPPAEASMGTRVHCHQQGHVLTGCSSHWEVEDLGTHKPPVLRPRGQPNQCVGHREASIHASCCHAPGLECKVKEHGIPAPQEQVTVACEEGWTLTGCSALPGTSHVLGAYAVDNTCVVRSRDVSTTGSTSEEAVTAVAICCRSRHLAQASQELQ

Row | Molecule | Relative Binding to PCSK9 Measured by DELIFA Immunoassay [1] | Relative Binding to PCSK9 Measured by DELIFA Immunoassay [2] | IC50 [3] [nM] | IC50 [4] [nM]
1 | AB-6 (antibody, V domains shown) VH: QVQLVQSGAEVKKPGASVKVSCKASGYTFTSYYMHWVRQAPGQGLEWMGEISPFGGTTNYNEKFKSRVTMTRDTSTSTVYMELSSLRSEDTAVYYCARERPLYSSDVWGQGTTVTVSS VL: DIQMTQSPSSLSASVGDRVTITCRASQGISSALAWYQQKPGKAPKLLIYSASYLYSGVPSRFSGSGSGTDFTFTISSLQPEDIATYYCQQRYSLWYTFGQGTKLEIK |  | 1.8 | 16.5 | 
2 | AB-2 (antibody, V domains shown) VH: QVQLVQSGAEVKKPGASVKVSCKASGYTFTSYYMHWVRQAPGQGLEWMGWIEPFGGRTNYNEKFKSRVTMTRDTSTSTVYMELSSLRSEDTAVYYCARERPLYAMDVWGQGTTVTVSS VL: DIQMTQSPSSLSASVGDRVTITCRASQGISGALAWYQQKPGKAPKLLIYSASYRYTGVPSRFSGSGSGTDFTFTISSLQPEDIATYYCQQRYSLSRTFGQGTKLEIK |  | 3.1 | 17.2 | 
3 | AB-4 (antibody, V domains shown) VH: QVQLVQSGAEVKKPGASVKVSCKASGYTFTSYYMHWVRQAPGQGLEWMGEIRPSGGSTNYNEKFKSRVTMTRDTSTSTVYMELSSLRSEDTAVYYCARDRPLYSMDVWGQGTTVTVSS VL: DIQMTQSPSSLSASVGDRVTITCRASQGISSALAWYQQKPGKAPKLLIYSASYRYTGVPSRFSGSGSGTDFTFTISSLQPEDIATYYCQQHYSSSWTFGQGTKLEIK |  | 2.9 |  | > 53
4 | AB-5 (antibody, V domains shown) VH: QVQLVQSGAEVKKPGASVKVSCKASGYTFTSYWMHWVRQAPGQGLEWMGEISPSGGSTNYNEKFKSRVTMTRDTSTSTVYMELSSLRSEDTAVYYCARERPLYAMDVWGQGTTVTVSS VL: DIQMTQSPSSLSASVGDRVTITCRASQGISSALAWYQQKPGKAPKLLIYSASYRYTGVPSRFSGSGSGTDFTFTISSLQPEDIATYYCQQRYSLWRTFGQGTKLEIK |  | 4.3 | 18.9 | 
5 | AB-1 (antibody, V domains shown) VH: QVQLVQSGAEVKKPGASVKVSCKASGYTFTSYYMHWVRQAPGQGLEWMGEILPGGGTTNYNQKFKSRVTMTRDTSTSTVYMELSSLRSEDTAVYYCARESPLYASDIWGQGTTVTVSS VL: DIQMTQSPSSLSASVGDRVTITCRASQGISTALAWYQQKPGKAPKLLIYSASYLYTGVPSRFSGSGSGTDFTFTISSLQPEDIATYYCQQRYSLWRTFGQGTKLEIK |  | 1.8 | 18.4 | 
6 | AB-3 (antibody, V domains shown) VH: QVQLVQSGAEVKKPGASVKVSCKASGYTFTSYWMHWVRQAPGQGLEWMGEIDPSGGSTNYNQKFQSRVTMTRDTSTSTVYMELSSLRSEDTAVYYCARERPLYASDVWGQGTTVTVSS VL: DIQMTQSPSSLSASVGDRVTITCRASQGISSALAWYQQKPGKAPKLLIYSASYRYTGVPSRFSGSGSGTDFTFTISSLQPEDIATYYCQQRYSLWRTFGQGTKLEIK |  | 2.8 | 16.1 | 

Second part, the molecule after the results:

Row | Relative Binding to PCSK9 Measured by DELIFA Immunoassay [1] | Relative Binding to PCSK9 Measured by DELIFA Immunoassay [2] | IC50 [3] [nM] | IC50 [4] [nM] | Molecule
7 | 5.2 |  |  |  | Control (antibody)
8 |  | 6.6 | 20 |  | Reference Antibody (antibody, V domains shown) VH: QVQLVQSGAEVKKPGASVKVSCKASGYTFTSYYMHWVRQAPGQGLEWMGEISPFGGRTNYNEKFKSRVTMTRDTSTSTVYMELSSLRSEDTAVYYCARERPLYASDLWGQGTTVTVSS VL: DIQMTQSPSSLSASVGDRVTITCRASQGISSALAWYQQKPGKAPKLLIYSASYRYTGVPSRFSGSGSGTDFTFTISSLQPEDIATYYCQQRYSLWRTFGQGTKLEIK
9 |  | 2.9 | 18.4 |  | AB-8 (antibody, V domains shown) VH: QVQLVQSGAEVKKPGASVKVSCKASGYTFTSYYMHWVRQAPGQGLEWMGEILPSGGRTNYNEKFKSRVTMTRDTSTSTVYMELSSLRSEDTAVYYCARERPLYAMDIWGQGTTVTVSS VL: DIQMTQSPSSLSASVGDRVTITCRASQGISSALAWYQQKPGKAPKLLIYSASYRYTGVPSRFSGSGSGTDFTFTISSLQPEDIATYYCQQRYSTWRTFGQGTKLEIK
10 |  | 2 | 18.1 |  | AB-7 (antibody, V domains shown) VH: QVQLVQSGAEVKKPGASVKVSCKASGYTFTSYYMHWVRQAPGQGLEWMGEIFPSGGRTNYNEKFKSRVTMTRDTSTSTVYMELSSLRSEDTAVYYCARERPFYASDLWGQGTTVTVSS VL: DIQMTQSPSSLSASVGDRVTITCRASQGISSALAWYQQKPGKAPKLLIYSASNLYTGVPSRFSGSGSGTDFTFTISSLQPEDIATYYCQQRYSLWRTFGQGTKLEIK
11 |  | 4.3 | 20.1 |  | AB-10 (antibody, V domains shown) VH: QVQLVQSGAEVKKPGASVKVSCKASGYTFTSYYMHWVRQAPGQGLEWMGEILPSGGRTNYNEKFKSRVTMTRDTSTSTVYMELSSLRSEDTAVYYCARERPLYAMDVWGQGTTVTVSS VL: DIQMTQSPSSLSASVGDRVTITCRASQGISSALAWYQQKPGKAPKLLIYSASYRYTGVPSRFSGSGSGTDFTFTISSLQPEDIATYYCQQRYSVALTFGQGTKLEIK
12 |  | 2.4 | 20.8 |  | AB-11 (antibody, V domains shown) VH: QVQLVQSGAEVKKPGASVKVSCKASGYSFTSYYMHWVRQAPGQGLEWMGEIDLSGGSTNYNQKFQSRVTMTRDTSTSTVYMELSSLRSEDTAVYYCARERPLYAFDVWGQGTTVTVSS VL: DIQMTQSPSSLSASVGDRVTITCRASQGISSALAWYQQKPGKAPKLLIYSASYRYTGVPSRFSGSGSGTDFTFTISSLQPEDIATYYCQQRYSLWRTFGQGTKLEIK
13 |  | 3.9 |  | > 53 | AB-9 (antibody, V domains shown) VH: QVQLVQSGAEVKKPGASVKVSCKASGYTFTSYYMHWVRQAPGQGLEWMGEIKPSGGTSNYNEKFKSRVTMTRDTSTSTVYMELSSLRSEDTAVYYCARDRPLYYSDVWGQGTTVTVSS VL: DIQMTQSPSSLSASVGDRVTITCRASQGISGSLAWYQQKPGKAPKLLIYSASYRYTGVPSRFSGSGSGTDFTFTISSLQPEDIATYYCQQYYSNYWTFGQGTKLEIK
